Data on one molecule can be found in paper PMC9313153, “Supramolecular Enzymatic Labeling for Aptamer Switch-Based Electrochemical Biosensor”.

The target of the series is carcinoembryonic antigen (CEA) (UniProt P06731 35-685). The series can be described thus: amperometric aptasensor (electrode-immobilized aptamer, HRP-CD label); HRP-CD, H2O2; detection range 10 pg/mL to 1 ng/mL, LOD 3.1 pg/mL (not a Kd); Aptamer electrode washed in 20 mM Tris-HCl pH 7.4, 100 mM NaCl, 5 mM MgCl2; casein block; read-out in 0.1 M sodium phosphate pH 7.4 with H2O2; CEA incubation buffer and temperature not in the material. As to conditions: protein: commercial; label: 5' thiol on gold nanoparticles; 3' adamantane for HRP-cyclodextrin; hairpin.
carcinoembryonic antigen (CEA), sequence (P06731 35-685): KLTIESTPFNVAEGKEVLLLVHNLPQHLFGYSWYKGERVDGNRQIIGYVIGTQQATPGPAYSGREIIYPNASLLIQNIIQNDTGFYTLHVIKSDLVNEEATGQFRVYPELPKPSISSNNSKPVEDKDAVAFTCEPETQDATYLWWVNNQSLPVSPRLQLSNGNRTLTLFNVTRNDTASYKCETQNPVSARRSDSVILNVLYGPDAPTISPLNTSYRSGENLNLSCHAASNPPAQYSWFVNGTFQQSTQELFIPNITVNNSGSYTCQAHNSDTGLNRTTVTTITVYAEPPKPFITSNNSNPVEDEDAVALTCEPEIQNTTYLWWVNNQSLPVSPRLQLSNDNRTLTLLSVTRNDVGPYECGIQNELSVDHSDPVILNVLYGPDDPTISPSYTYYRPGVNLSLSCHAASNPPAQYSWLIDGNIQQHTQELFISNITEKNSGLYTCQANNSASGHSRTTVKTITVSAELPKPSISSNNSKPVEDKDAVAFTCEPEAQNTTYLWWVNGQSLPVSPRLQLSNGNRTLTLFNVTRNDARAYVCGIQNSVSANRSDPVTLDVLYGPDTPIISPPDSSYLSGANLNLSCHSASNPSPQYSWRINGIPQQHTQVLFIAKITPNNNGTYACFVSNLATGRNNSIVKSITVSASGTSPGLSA

CCACGATACCAGCTTATTCAATTCGTGG (structured_DNA, 5'-HS-(CH2)6; 3'-(CH2)6-NH2 converted to adamantane (ADA)) [Apt-ADA (anti-CEA aptamer)]: the binding result was “binds”.
